Source: article PMC8915838

Columns and labels:
[1] = biological target: leukotriene A4 hydrolase (LTA4H) (UniProt P09960); assay: SPR
[2] = biological target: leukotriene A4 hydrolase (LTA4H) (UniProt P09960); assay: enzyme inhibition
plasmin = assay: enzyme inhibition
trypsin = assay: enzyme inhibition

MTX, immunosuppressant protein from the submandibular salivary glands of the bat Myotis pilosus (natural protein)
Kd [1]: 0.45 nM | Ki [2]: 1230 nM | Ki (plasmin): 80 nM | Ki (trypsin): 67.5 nM
